Article PMC6620310, “A ubiquitin-like domain is required for stabilizing the N-terminal ATPase module of human SMCHD1” (Communications Biology, 2019)

B1: SMCHD1(24–580/E147A), seleno-methionine-labeled (domain or fragment, human, UniProt A6NHR9 24-580, looked up)
chain: GHRTVYLFDRREKESELGDRPLQVGERSDYAGFRACVCQTLGISPEEKFVITTTSRKEITCDNFDETVKDGVTLYLLQSVNQLLLTATKERIDFLPHYDTLVKSGMYEYYASEGQNPLPFALAALIDNSLSATSRNIGVRRIQIKLLFDETQGKPAVAVIDNGRGMTSKQLNNWAVYRLSKFTRQGDFESDHSGYVRPVPVPRSLNSDISYFGVGGKQAVFFVGQSARMISKPADSQDVHELVLSKEDFEKKEKNKEAIYSGYIRNRKPSDSVHITNDDERFLHHLIIEEKEKDSFTAVVITGVQPEHIQYLKNYFHLWTRQLAHIYHYYIHGPKGNEIRTSKEVEPFNNIDIEISMFEKGKVPKIVNLREIQDDMQTLYVNTAADSFEFKAHVEGDGVVEGIIRYHPFLYDRETYPDDPCFPSKLKDEDDEDDCFILEKAARGKRPIFECFWNGRLIPYTSVEDFDWCTPPKKRGLAPIECYNRISGALFTNDKFQVSTNKLTFMDLELKLKDKNTLFTRILNGQEQRMKIDREFALWLKDCHEKYDKQIKFTLFK
modifications: selenomethionine substituted for methionine
notes: Crystallised as a homodimer with one ATP per monomer; two homodimers in the asymmetric unit; also called SMCHD1 E147A; source: E. coli B834(DE3), purified (glutathione resin, TEV cleavage, Superdex200 with Mg2+/ATP, MonoQ)
B2: SMCHD1(24–580) Q345R (domain or fragment, human, UniProt A6NHR9 24-580, looked up)
chain: GHRTVYLFDRREKESELGDRPLQVGERSDYAGFRACVCQTLGISPEEKFVITTTSRKEITCDNFDETVKDGVTLYLLQSVNQLLLTATKERIDFLPHYDTLVKSGMYEYYASEGQNPLPFALAELIDNSLSATSRNIGVRRIQIKLLFDETQGKPAVAVIDNGRGMTSKQLNNWAVYRLSKFTRQGDFESDHSGYVRPVPVPRSLNSDISYFGVGGKQAVFFVGQSARMISKPADSQDVHELVLSKEDFEKKEKNKEAIYSGYIRNRKPSDSVHITNDDERFLHHLIIEEKEKDSFTAVVITGVQPEHIQYLKNYFHLWTRRLAHIYHYYIHGPKGNEIRTSKEVEPFNNIDIEISMFEKGKVPKIVNLREIQDDMQTLYVNTAADSFEFKAHVEGDGVVEGIIRYHPFLYDRETYPDDPCFPSKLKDEDDEDDCFILEKAARGKRPIFECFWNGRLIPYTSVEDFDWCTPPKKRGLAPIECYNRISGALFTNDKFQVSTNKLTFMDLELKLKDKNTLFTRILNGQEQRMKIDREFALWLKDCHEKYDKQIKFTLFK
notes: SMCHD1, human, residues 24-580 with the arhinia variant Q345R; PDB 6MW7 holds the same limits with E147A; Human disease variant (arhinia); also called p.Q345R; source: E. coli Rosetta2(DE3), purified (Glutathione 4B Sepharose, TEV cleavage, Superdex200)
B3: SMCHD1(24–580) H348R (domain or fragment, human, UniProt A6NHR9 24-580, looked up)
chain: GHRTVYLFDRREKESELGDRPLQVGERSDYAGFRACVCQTLGISPEEKFVITTTSRKEITCDNFDETVKDGVTLYLLQSVNQLLLTATKERIDFLPHYDTLVKSGMYEYYASEGQNPLPFALAELIDNSLSATSRNIGVRRIQIKLLFDETQGKPAVAVIDNGRGMTSKQLNNWAVYRLSKFTRQGDFESDHSGYVRPVPVPRSLNSDISYFGVGGKQAVFFVGQSARMISKPADSQDVHELVLSKEDFEKKEKNKEAIYSGYIRNRKPSDSVHITNDDERFLHHLIIEEKEKDSFTAVVITGVQPEHIQYLKNYFHLWTRQLARIYHYYIHGPKGNEIRTSKEVEPFNNIDIEISMFEKGKVPKIVNLREIQDDMQTLYVNTAADSFEFKAHVEGDGVVEGIIRYHPFLYDRETYPDDPCFPSKLKDEDDEDDCFILEKAARGKRPIFECFWNGRLIPYTSVEDFDWCTPPKKRGLAPIECYNRISGALFTNDKFQVSTNKLTFMDLELKLKDKNTLFTRILNGQEQRMKIDREFALWLKDCHEKYDKQIKFTLFK
notes: SMCHD1, human, residues 24-580 with the arhinia variant H348R; PDB 6MW7 holds the same limits with E147A; Human disease variant (arhinia); also called p.H348R; source: E. coli Rosetta2(DE3), purified (Glutathione 4B Sepharose, TEV cleavage, Superdex200)
B4: SMCHD1(24–580) T523K (domain or fragment, human, UniProt A6NHR9 24-580, looked up)
chain: GHRTVYLFDRREKESELGDRPLQVGERSDYAGFRACVCQTLGISPEEKFVITTTSRKEITCDNFDETVKDGVTLYLLQSVNQLLLTATKERIDFLPHYDTLVKSGMYEYYASEGQNPLPFALAELIDNSLSATSRNIGVRRIQIKLLFDETQGKPAVAVIDNGRGMTSKQLNNWAVYRLSKFTRQGDFESDHSGYVRPVPVPRSLNSDISYFGVGGKQAVFFVGQSARMISKPADSQDVHELVLSKEDFEKKEKNKEAIYSGYIRNRKPSDSVHITNDDERFLHHLIIEEKEKDSFTAVVITGVQPEHIQYLKNYFHLWTRQLAHIYHYYIHGPKGNEIRTSKEVEPFNNIDIEISMFEKGKVPKIVNLREIQDDMQTLYVNTAADSFEFKAHVEGDGVVEGIIRYHPFLYDRETYPDDPCFPSKLKDEDDEDDCFILEKAARGKRPIFECFWNGRLIPYTSVEDFDWCTPPKKRGLAPIECYNRISGALFTNDKFQVSKNKLTFMDLELKLKDKNTLFTRILNGQEQRMKIDREFALWLKDCHEKYDKQIKFTLFK
notes: SMCHD1, human, residues 24-580 with the arhinia variant T523K; PDB 6MW7 holds the same limits with E147A; Human disease variant (arhinia); also called p.T523K; source: E. coli Rosetta2(DE3), purified (Glutathione 4B Sepharose, TEV cleavage, Superdex200)
B5: SMCHD1(24–580) E473Q (domain or fragment, human, UniProt A6NHR9 24-580, looked up)
chain: GHRTVYLFDRREKESELGDRPLQVGERSDYAGFRACVCQTLGISPEEKFVITTTSRKEITCDNFDETVKDGVTLYLLQSVNQLLLTATKERIDFLPHYDTLVKSGMYEYYASEGQNPLPFALAELIDNSLSATSRNIGVRRIQIKLLFDETQGKPAVAVIDNGRGMTSKQLNNWAVYRLSKFTRQGDFESDHSGYVRPVPVPRSLNSDISYFGVGGKQAVFFVGQSARMISKPADSQDVHELVLSKEDFEKKEKNKEAIYSGYIRNRKPSDSVHITNDDERFLHHLIIEEKEKDSFTAVVITGVQPEHIQYLKNYFHLWTRQLAHIYHYYIHGPKGNEIRTSKEVEPFNNIDIEISMFEKGKVPKIVNLREIQDDMQTLYVNTAADSFEFKAHVEGDGVVEGIIRYHPFLYDRETYPDDPCFPSKLKDEDDEDDCFILEKAARGKRPIFQCFWNGRLIPYTSVEDFDWCTPPKKRGLAPIECYNRISGALFTNDKFQVSTNKLTFMDLELKLKDKNTLFTRILNGQEQRMKIDREFALWLKDCHEKYDKQIKFTLFK
notes: SMCHD1, human, residues 24-580 with the arhinia variant E473Q; PDB 6MW7 holds the same limits with E147A; Human disease variant (arhinia); also called p.E473Q; source: E. coli Rosetta2(DE3), purified (Glutathione 4B Sepharose, TEV cleavage, Superdex200)
B6: SMCHD1(24–580) E473G (domain or fragment, human, UniProt A6NHR9 24-580, looked up)
chain: GHRTVYLFDRREKESELGDRPLQVGERSDYAGFRACVCQTLGISPEEKFVITTTSRKEITCDNFDETVKDGVTLYLLQSVNQLLLTATKERIDFLPHYDTLVKSGMYEYYASEGQNPLPFALAELIDNSLSATSRNIGVRRIQIKLLFDETQGKPAVAVIDNGRGMTSKQLNNWAVYRLSKFTRQGDFESDHSGYVRPVPVPRSLNSDISYFGVGGKQAVFFVGQSARMISKPADSQDVHELVLSKEDFEKKEKNKEAIYSGYIRNRKPSDSVHITNDDERFLHHLIIEEKEKDSFTAVVITGVQPEHIQYLKNYFHLWTRQLAHIYHYYIHGPKGNEIRTSKEVEPFNNIDIEISMFEKGKVPKIVNLREIQDDMQTLYVNTAADSFEFKAHVEGDGVVEGIIRYHPFLYDRETYPDDPCFPSKLKDEDDEDDCFILEKAARGKRPIFGCFWNGRLIPYTSVEDFDWCTPPKKRGLAPIECYNRISGALFTNDKFQVSTNKLTFMDLELKLKDKNTLFTRILNGQEQRMKIDREFALWLKDCHEKYDKQIKFTLFK
notes: SMCHD1, human, residues 24-580 with the arhinia variant E473G; PDB 6MW7 holds the same limits with E147A; Human disease variant (arhinia); also called p.E473G; source: E. coli Rosetta2(DE3), purified (Glutathione 4B Sepharose, TEV cleavage, Superdex200)
B7: SMCHD1(24–580) G137E (domain or fragment, human, UniProt A6NHR9 24-580, looked up)
chain: GHRTVYLFDRREKESELGDRPLQVGERSDYAGFRACVCQTLGISPEEKFVITTTSRKEITCDNFDETVKDGVTLYLLQSVNQLLLTATKERIDFLPHYDTLVKSGMYEYYASEEQNPLPFALAELIDNSLSATSRNIGVRRIQIKLLFDETQGKPAVAVIDNGRGMTSKQLNNWAVYRLSKFTRQGDFESDHSGYVRPVPVPRSLNSDISYFGVGGKQAVFFVGQSARMISKPADSQDVHELVLSKEDFEKKEKNKEAIYSGYIRNRKPSDSVHITNDDERFLHHLIIEEKEKDSFTAVVITGVQPEHIQYLKNYFHLWTRQLAHIYHYYIHGPKGNEIRTSKEVEPFNNIDIEISMFEKGKVPKIVNLREIQDDMQTLYVNTAADSFEFKAHVEGDGVVEGIIRYHPFLYDRETYPDDPCFPSKLKDEDDEDDCFILEKAARGKRPIFECFWNGRLIPYTSVEDFDWCTPPKKRGLAPIECYNRISGALFTNDKFQVSTNKLTFMDLELKLKDKNTLFTRILNGQEQRMKIDREFALWLKDCHEKYDKQIKFTLFK
notes: SMCHD1, human, residues 24-580 with the variant G137E (implicated in both arhinia and FSHD2); PDB 6MW7 holds the same limits with E147A; Human disease variant (arhinia and FSHD2); also called p.G137E; source: E. coli Rosetta2(DE3), purified (Glutathione 4B Sepharose, TEV cleavage, Superdex200)
B8: SMCHD1(24–580) S135C (domain or fragment, human, UniProt A6NHR9 24-580, looked up)
chain: GHRTVYLFDRREKESELGDRPLQVGERSDYAGFRACVCQTLGISPEEKFVITTTSRKEITCDNFDETVKDGVTLYLLQSVNQLLLTATKERIDFLPHYDTLVKSGMYEYYACEGQNPLPFALAELIDNSLSATSRNIGVRRIQIKLLFDETQGKPAVAVIDNGRGMTSKQLNNWAVYRLSKFTRQGDFESDHSGYVRPVPVPRSLNSDISYFGVGGKQAVFFVGQSARMISKPADSQDVHELVLSKEDFEKKEKNKEAIYSGYIRNRKPSDSVHITNDDERFLHHLIIEEKEKDSFTAVVITGVQPEHIQYLKNYFHLWTRQLAHIYHYYIHGPKGNEIRTSKEVEPFNNIDIEISMFEKGKVPKIVNLREIQDDMQTLYVNTAADSFEFKAHVEGDGVVEGIIRYHPFLYDRETYPDDPCFPSKLKDEDDEDDCFILEKAARGKRPIFECFWNGRLIPYTSVEDFDWCTPPKKRGLAPIECYNRISGALFTNDKFQVSTNKLTFMDLELKLKDKNTLFTRILNGQEQRMKIDREFALWLKDCHEKYDKQIKFTLFK
notes: SMCHD1, human, residues 24-580 with the arhinia variant S135C; PDB 6MW7 holds the same limits with E147A; Human disease variant (arhinia); also called p.S135C; source: E. coli Rosetta2(DE3), purified (Glutathione 4B Sepharose, TEV cleavage, Superdex200)
B9: SMCHD1(24–580) N139H (domain or fragment, human, UniProt A6NHR9 24-580, looked up)
chain: GHRTVYLFDRREKESELGDRPLQVGERSDYAGFRACVCQTLGISPEEKFVITTTSRKEITCDNFDETVKDGVTLYLLQSVNQLLLTATKERIDFLPHYDTLVKSGMYEYYASEGQHPLPFALAELIDNSLSATSRNIGVRRIQIKLLFDETQGKPAVAVIDNGRGMTSKQLNNWAVYRLSKFTRQGDFESDHSGYVRPVPVPRSLNSDISYFGVGGKQAVFFVGQSARMISKPADSQDVHELVLSKEDFEKKEKNKEAIYSGYIRNRKPSDSVHITNDDERFLHHLIIEEKEKDSFTAVVITGVQPEHIQYLKNYFHLWTRQLAHIYHYYIHGPKGNEIRTSKEVEPFNNIDIEISMFEKGKVPKIVNLREIQDDMQTLYVNTAADSFEFKAHVEGDGVVEGIIRYHPFLYDRETYPDDPCFPSKLKDEDDEDDCFILEKAARGKRPIFECFWNGRLIPYTSVEDFDWCTPPKKRGLAPIECYNRISGALFTNDKFQVSTNKLTFMDLELKLKDKNTLFTRILNGQEQRMKIDREFALWLKDCHEKYDKQIKFTLFK
notes: SMCHD1, human, residues 24-580 with the arhinia variant N139H; PDB 6MW7 holds the same limits with E147A; Human disease variant (arhinia); also called p.N139H; source: E. coli Rosetta2(DE3), purified (Glutathione 4B Sepharose, TEV cleavage, Superdex200)

Biological target: the molecule itself
Assay: crystal structure; seleno-methionine protein at 8.5 mg/ml with 5 mM Mg2+/ATP, sitting drop; SAD phasing, 2.2 Å

Row | Protein | binding result
1 | B1 | binds

Biological target: the molecule itself
Assay: cross-linking; glutaraldehyde (final 0.0125%), protein at 2 mg/mL in 20 mM HEPES pH 7.5, 100 mM NaCl, 10% glycerol with 5 mM MgCl2 and 5 mM ATP, 40 min at room temperature, diluted 6.25-fold; SDS-PAGE

Row | Protein | binding result
2 | B2 | binds

Biological target: the molecule itself
Assay: native gel or EMSA; blue-native PAGE, 4–16% Bis-Tris; 2.2 µg/µl protein incubated with 5 mM MgCl2 and ATP 30 min on ice; 1 mM MgCl2 and 1 mM ATP in the running buffers; monomer and dimer bands quantified

Row | Protein | binding result
3 | B3 | binds
4 | B4 | binds
5 | B5 | binds
6 | B6 | binds
7 | B7 | binds
8 | B8 | binds
9 | B9 | binds
